This is an account of results in US20060172374.

“And” between values parts separate entries of the source, which are not always exact repeats. Equal values may be shown once.

In one data set the target is bovine S100B (Sigma) (UniProt P02638).
bovine S100B (Sigma), sequence (P02638 2-92): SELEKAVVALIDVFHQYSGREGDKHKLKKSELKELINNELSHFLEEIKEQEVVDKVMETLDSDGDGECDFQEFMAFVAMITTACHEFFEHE

myc-tagged hMOB1, sequence (chain, as listed by the source): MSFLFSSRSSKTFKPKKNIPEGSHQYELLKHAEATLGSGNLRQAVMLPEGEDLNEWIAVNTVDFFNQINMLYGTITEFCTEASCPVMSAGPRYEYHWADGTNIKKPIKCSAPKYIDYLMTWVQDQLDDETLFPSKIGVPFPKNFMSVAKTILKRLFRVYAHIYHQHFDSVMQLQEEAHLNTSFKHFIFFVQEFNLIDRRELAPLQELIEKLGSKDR
GST-NDR2, sequence (chain, as listed by the source): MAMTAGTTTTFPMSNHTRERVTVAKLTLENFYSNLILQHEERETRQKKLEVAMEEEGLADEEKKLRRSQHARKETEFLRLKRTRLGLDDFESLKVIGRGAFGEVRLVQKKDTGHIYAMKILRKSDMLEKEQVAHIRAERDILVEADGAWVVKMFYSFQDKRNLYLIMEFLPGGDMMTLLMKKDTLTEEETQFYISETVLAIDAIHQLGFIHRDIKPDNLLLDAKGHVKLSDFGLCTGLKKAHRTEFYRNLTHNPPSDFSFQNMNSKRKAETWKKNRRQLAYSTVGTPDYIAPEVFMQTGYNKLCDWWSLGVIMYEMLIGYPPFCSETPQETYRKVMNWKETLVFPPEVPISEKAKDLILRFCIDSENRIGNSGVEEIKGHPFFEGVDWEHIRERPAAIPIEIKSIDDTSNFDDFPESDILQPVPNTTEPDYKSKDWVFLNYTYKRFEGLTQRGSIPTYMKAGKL

With GST-NDR2, in the data set with bovine S100B (Sigma), the “rate of NDR2 autophosphorylation” value is “increases the rate of NDR2 autophosphorylation by ˜2-fold after 4 hours of incubation” and the “specific NDR activity” value is recorded as “stimulates the specific NDR activity in a concentration dependent manner up to ˜4-fold”.
In the data set with bovine S100B (Sigma), GST-NDR1 T444A returned an autophosphorylation, incorporated 32P (Cerenkov counting), +S100B of 0.241 and a specific activity, peptide kinase assay, after autophosphorylation +S100B of 3.97.
Regarding GST-NDR1 wild type, in the data set with bovine S100B (Sigma), the autophosphorylation, incorporated 32P (Cerenkov counting), +S100B was 0.351; the increase in autophosphorylation result was “an approximate 2-fold increase in autophosphorylation (on both Ser281 and Thr444)”; the “increase in kinase activity” value is reported as “about a 5-fold increase in kinase activity”; the “phosphorylation on Ser281 and Thr444 (immunoblot with phosphospecific antibodies)” value is “Ca2+/S100B was found to enhance phosphorylation on both Ser281 and Thr444”. This substance gave a specific activity, peptide kinase assay, after autophosphorylation +S100B with bovine S100B (Sigma) of 21.3.
In the data set with bovine S100B (Sigma), GST-NDR1 kinase dead (K118A) had an autophosphorylation, incorporated 32P (Cerenkov counting), +S100B of 0.0064 and a specific activity, peptide kinase assay, after autophosphorylation +S100B of 0.222.
In the data set with bovine S100B (Sigma), GST-NDR1 S281A came in with an autophosphorylation, incorporated 32P (Cerenkov counting), +S100B of 0.028 and a specific activity, peptide kinase assay, after autophosphorylation +S100B of 0.952.
Turning to GST-NDR1 T74A, in the data set with bovine S100B (Sigma), the “S100B-mediated increase of phosphorylation of Ser281 and Thr444 (immunoblot with phosphospecific antibodies)” value is “the T74A point mutation abolished the S100B-mediated increase of phosphorylation for both Ser281 and Thr444 residues without affecting the intrinsic NDR1 autophosphorylation”; the autophosphorylation, incorporated 32P (Cerenkov counting), +S100B was 0.207; the specific activity, peptide kinase assay, after autophosphorylation +S100B turned out to be 7.82.
For the substance HA-tagged NDR1 wild type, the “NDR autophosphorylation activity (32P, SDS PAGE, phosphoimager)” value with GST-hMOB1 is recorded as “Addition of GST-hMOB1 to HA-NDR kinase reactions stimulated NDR autophosphorylation activity”. The OA stimulated NDR kinase activity (peptide kinase assay of 12CA5 immunoprecipitates) in the data set with myc-tagged hMOB1 was 2 fold and 3 fold.
